Data taken from patent publication US20220062341A1 (KIRIN, published 2022).

Each binder was assayed against CD3 subunits (CD3E, CD3G, CD3D, CD3Z) (human, UniProt P07766 23-207; P09693 23-182; P04234 22-171; P20963 22-164) (assay: cell-based or functional assay).
Chain of CD3 subunits (CD3E, CD3G, CD3D, CD3Z) (P07766 23-207, chain 1 of 4): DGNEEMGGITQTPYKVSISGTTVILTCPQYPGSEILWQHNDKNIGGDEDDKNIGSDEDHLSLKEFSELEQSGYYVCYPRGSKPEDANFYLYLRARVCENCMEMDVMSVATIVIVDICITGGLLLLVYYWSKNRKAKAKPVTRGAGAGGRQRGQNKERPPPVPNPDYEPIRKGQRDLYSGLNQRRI
Chain of CD3 subunits (CD3E, CD3G, CD3D, CD3Z) (P09693 23-182, chain 2 of 4): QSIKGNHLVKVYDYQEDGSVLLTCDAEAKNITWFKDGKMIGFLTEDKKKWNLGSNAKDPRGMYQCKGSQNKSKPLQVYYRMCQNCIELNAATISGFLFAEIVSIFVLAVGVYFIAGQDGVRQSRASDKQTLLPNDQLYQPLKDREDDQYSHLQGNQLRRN
Chain of CD3 subunits (CD3E, CD3G, CD3D, CD3Z) (P04234 22-171, chain 3 of 4): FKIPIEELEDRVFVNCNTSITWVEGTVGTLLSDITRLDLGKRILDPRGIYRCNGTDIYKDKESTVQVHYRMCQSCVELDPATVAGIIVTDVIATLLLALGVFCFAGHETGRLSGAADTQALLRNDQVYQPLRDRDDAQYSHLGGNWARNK
Chain of CD3 subunits (CD3E, CD3G, CD3D, CD3Z) (P20963 22-164, chain 4 of 4): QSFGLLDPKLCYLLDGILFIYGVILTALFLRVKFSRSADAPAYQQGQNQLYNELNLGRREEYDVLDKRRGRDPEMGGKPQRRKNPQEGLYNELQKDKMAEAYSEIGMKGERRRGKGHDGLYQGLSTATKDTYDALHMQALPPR

Binder | CD3-recruiting activity (CD3-positive proportion, N=3), CD3-stably expressing 293T cells
modified TCR consisting of β12 and α10 (TCR) TCR alpha: IPEDTFFPSPESSCDVKLVEKSFETDTNLNFQNLSVIGFRILLLKVAGFNLLMTLRLWSS TCR beta: AKPVTQIVSAEAWGRADCGFTSESYQQGVLSATILYEILLGKATLYAVLVSALVLMAMVKRKDSRG | ≥ 20%
modified TCR consisting of β11 and α10 (TCR) TCR alpha: IPEDTFFPSPESSCDVKLVEKSFETDTNLNFQNLSVIGFRILLLKVAGFNLLMTLRLWSS TCR beta: EWTQDRAKPVTQIVSAEAWGRADCGFTSESYQQGVLSATILYEILLGKATLYAVLVSALVLMAMVKRKDSRG | ≥ 20%
modified TCR consisting of β11 and α3 (TCR) TCR alpha: NVSQSKDSDVYITDKTVLDMRSMDFKSNSAVAWSNKSDFACANAFNNSIIPEDTFFPSPESSCDVKLVEKSFETDTNLNFQNLSVIGFRILLLKVAGFNLLMTLRLWSS TCR beta: EWTQDRAKPVTQIVSAEAWGRADCGFTSESYQQGVLSATILYEILLGKATLYAVLVSALVLMAMVKRKDSRG | ≥ 20%
modified TCR consisting of β11 and α6 (TCR) TCR alpha: KSNSAVAWSNKSDFACANAFNNSIIPEDTFFPSPESSCDVKLVEKSFETDTNLNFQNLSVIGFRILLLKVAGFNLLMTLRLWSS TCR beta: EWTQDRAKPVTQIVSAEAWGRADCGFTSESYQQGVLSATILYEILLGKATLYAVLVSALVLMAMVKRKDSRG | ≥ 20%
modified TCR consisting of β11 and α7 (TCR) TCR alpha: SNKSDFACANAFNNSIIPEDTFFPSPESSCDVKLVEKSFETDTNLNFQNLSVIGFRILLLKVAGFNLLMTLRLWSS TCR beta: EWTQDRAKPVTQIVSAEAWGRADCGFTSESYQQGVLSATILYEILLGKATLYAVLVSALVLMAMVKRKDSRG | ≥ 20%
modified TCR consisting of β12 and α4 (TCR) TCR alpha: DVYITDKTVLDMRSMDFKSNSAVAWSNKSDFACANAFNNSIIPEDTFFPSPESSCDVKLVEKSFETDTNLNFQNLSVIGFRILLLKVAGFNLLMTLRLWSS TCR beta: AKPVTQIVSAEAWGRADCGFTSESYQQGVLSATILYEILLGKATLYAVLVSALVLMAMVKRKDSRG | ≥ 20%
modified TCR consisting of β12 and α7 (TCR) TCR alpha: SNKSDFACANAFNNSIIPEDTFFPSPESSCDVKLVEKSFETDTNLNFQNLSVIGFRILLLKVAGFNLLMTLRLWSS TCR beta: AKPVTQIVSAEAWGRADCGFTSESYQQGVLSATILYEILLGKATLYAVLVSALVLMAMVKRKDSRG | ≥ 20%
modified TCR consisting of β12 and α3 (TCR) TCR alpha: NVSQSKDSDVYITDKTVLDMRSMDFKSNSAVAWSNKSDFACANAFNNSIIPEDTFFPSPESSCDVKLVEKSFETDTNLNFQNLSVIGFRILLLKVAGFNLLMTLRLWSS TCR beta: AKPVTQIVSAEAWGRADCGFTSESYQQGVLSATILYEILLGKATLYAVLVSALVLMAMVKRKDSRG | ≥ 20%
modified TCR consisting of β12 and α9 (TCR) TCR alpha: FNNSIIPEDTFFPSPESSCDVKLVEKSFETDTNLNFQNLSVIGFRILLLKVAGFNLLMTLRLWSS TCR beta: AKPVTQIVSAEAWGRADCGFTSESYQQGVLSATILYEILLGKATLYAVLVSALVLMAMVKRKDSRG | ≥ 20%
modified TCR consisting of β11 and α4 (TCR) TCR alpha: DVYITDKTVLDMRSMDFKSNSAVAWSNKSDFACANAFNNSIIPEDTFFPSPESSCDVKLVEKSFETDTNLNFQNLSVIGFRILLLKVAGFNLLMTLRLWSS TCR beta: EWTQDRAKPVTQIVSAEAWGRADCGFTSESYQQGVLSATILYEILLGKATLYAVLVSALVLMAMVKRKDSRG | ≥ 20%

Now from value to binder:

CD3-recruiting activity (CD3-positive proportion, N=3), CD3-stably expressing 293T cells | Binder
≥ 20% | modified TCR consisting of β10 and α10 (TCR) TCR alpha: IPEDTFFPSPESSCDVKLVEKSFETDTNLNFQNLSVIGFRILLLKVAGFNLLMTLRLWSS TCR beta: YGLSENDEWTQDRAKPVTQIVSAEAWGRADCGFTSESYQQGVLSATILYEILLGKATLYAVLVSALVLMAMVKRKDSRG
≥ 20% | modified TCR consisting of β11 and α5 (TCR) TCR alpha: LDMRSMDFKSNSAVAWSNKSDFACANAFNNSIIPEDTFFPSPESSCDVKLVEKSFETDTNLNFQNLSVIGFRILLLKVAGFNLLMTLRLWSS TCR beta: EWTQDRAKPVTQIVSAEAWGRADCGFTSESYQQGVLSATILYEILLGKATLYAVLVSALVLMAMVKRKDSRG
≥ 20% | modified TCR consisting of β11 and α8 (TCR) TCR alpha: CANAFNNSIIPEDTFFPSPESSCDVKLVEKSFETDTNLNFQNLSVIGFRILLLKVAGFNLLMTLRLWSS TCR beta: EWTQDRAKPVTQIVSAEAWGRADCGFTSESYQQGVLSATILYEILLGKATLYAVLVSALVLMAMVKRKDSRG
≥ 20% | modified TCR consisting of β11 and α9 (TCR) TCR alpha: FNNSIIPEDTFFPSPESSCDVKLVEKSFETDTNLNFQNLSVIGFRILLLKVAGFNLLMTLRLWSS TCR beta: EWTQDRAKPVTQIVSAEAWGRADCGFTSESYQQGVLSATILYEILLGKATLYAVLVSALVLMAMVKRKDSRG
≥ 20% | modified TCR consisting of β12 and α6 (TCR) TCR alpha: KSNSAVAWSNKSDFACANAFNNSIIPEDTFFPSPESSCDVKLVEKSFETDTNLNFQNLSVIGFRILLLKVAGFNLLMTLRLWSS TCR beta: AKPVTQIVSAEAWGRADCGFTSESYQQGVLSATILYEILLGKATLYAVLVSALVLMAMVKRKDSRG
≥ 20% | modified TCR consisting of β12 and α5 (TCR) TCR alpha: LDMRSMDFKSNSAVAWSNKSDFACANAFNNSIIPEDTFFPSPESSCDVKLVEKSFETDTNLNFQNLSVIGFRILLLKVAGFNLLMTLRLWSS TCR beta: AKPVTQIVSAEAWGRADCGFTSESYQQGVLSATILYEILLGKATLYAVLVSALVLMAMVKRKDSRG
≥ 20% | modified TCR consisting of β12 and α8 (TCR) TCR alpha: CANAFNNSIIPEDTFFPSPESSCDVKLVEKSFETDTNLNFQNLSVIGFRILLLKVAGFNLLMTLRLWSS TCR beta: AKPVTQIVSAEAWGRADCGFTSESYQQGVLSATILYEILLGKATLYAVLVSALVLMAMVKRKDSRG

The binders below were run against CD3E (human, UniProt P07766 23-207) (assay: cell-based or functional assay).
Chain of CD3E (P07766 23-207): as the sequence (P07766 23-207, chain 1 of 4) above

Binder | CD3E-positive proportion [%] (Avg, n = 2), CD3-stably expressing 293T cells
modified TCR ba14 (TCR) TCR alpha: IPEDTFFPSPESSCDVKLVEKSFETDTNLNFQNLSVIGFRILLLKVAGFNLLMTLRLWSS TCR beta: ATLVCLATGFYPDHVELSWWVNGKEVHSGVSTDPQPLKEQPALNDSRYCLSSRLRVSATFWQNPRNHFRCQVQFYGLSENDEWTQDRAKPVTQIVSAEAWGRADCGFTSESYQQGVLSATILYEILLGKATLYAVLVSALVLMAMVKRKDSRG | 46.4%
modified TCR ba11 (TCR) TCR alpha: SVCLFTDFDSQTNVSQSKDSDVYITDKTVLDMRSMDFKSNSAVAWSNKSDFACANAFNNSIIPEDTFFPSPESSCDVKLVEKSFETDTNLNFQNLSVIGFRILLLKVAGFNLLMTLRLWSS TCR beta: ATLVCLATGFYPDHVELSWWVNGKEVHSGVSTDPQPLKEQPALNDSRYCLSSRLRVSATFWQNPRNHFRCQVQFYGLSENDEWTQDRAKPVTQIVSAEAWGRADCGFTSESYQQGVLSATILYEILLGKATLYAVLVSALVLMAMVKRKDSRG | 83.2%
modified TCR ba12 (TCR) TCR alpha: DVYITDKTVLDMRSMDFKSNSAVAWSNKSDFACANAFNNSIIPEDTFFPSPESSCDVKLVEKSFETDTNLNFQNLSVIGFRILLLKVAGFNLLMTLRLWSS TCR beta: ATLVCLATGFYPDHVELSWWVNGKEVHSGVSTDPQPLKEQPALNDSRYCLSSRLRVSATFWQNPRNHFRCQVQFYGLSENDEWTQDRAKPVTQIVSAEAWGRADCGFTSESYQQGVLSATILYEILLGKATLYAVLVSALVLMAMVKRKDSRG | 51%
modified TCR ba13 (TCR) TCR alpha: KSNSAVAWSNKSDFACANAFNNSIIPEDTFFPSPESSCDVKLVEKSFETDTNLNFQNLSVIGFRILLLKVAGFNLLMTLRLWSS TCR beta: ATLVCLATGFYPDHVELSWWVNGKEVHSGVSTDPQPLKEQPALNDSRYCLSSRLRVSATFWQNPRNHFRCQVQFYGLSENDEWTQDRAKPVTQIVSAEAWGRADCGFTSESYQQGVLSATILYEILLGKATLYAVLVSALVLMAMVKRKDSRG | 40.4%
modified TCR ba16 (TCR) TCR alpha: DVYITDKTVLDMRSMDFKSNSAVAWSNKSDFACANAFNNSIIPEDTFFPSPESSCDVKLVEKSFETDTNLNFQNLSVIGFRILLLKVAGFNLLMTLRLWSS TCR beta: AKPVTQIVSAEAWGRADCGFTSESYQQGVLSATILYEILLGKATLYAVLVSALVLMAMVKRKDSRG | 70.7%
modified TCR ba17 (TCR) TCR alpha: KSNSAVAWSNKSDFACANAFNNSIIPEDTFFPSPESSCDVKLVEKSFETDTNLNFQNLSVIGFRILLLKVAGFNLLMTLRLWSS TCR beta: AKPVTQIVSAEAWGRADCGFTSESYQQGVLSATILYEILLGKATLYAVLVSALVLMAMVKRKDSRG | 81.9%

Other lines, results leading:

CD3E-positive proportion [%] (Avg, n = 2), CD3-stably expressing 293T cells | Binder
86.5% | modified TCR ba10 (TCR) TCR alpha: IPEDTFFPSPESSCDVKLVEKSFETDTNLNFQNLSVIGFRILLLKVAGFNLLMTLRLWSS TCR beta: EDLKNVFPPEVAVFEPSEAEISHTQKATLVCLATGFYPDHVELSWWVNGKEVHSGVSTDPQPLKEQPALNDSRYCLSSRLRVSATFWQNPRNHFRCQVQFYGLSENDEWTQDRAKPVTQIVSAEAWGRADCGFTSESYQQGVLSATILYEILLGKATLYAVLVSALVLMAMVKRKDSRG
56.5% | modified TCR ba15 (TCR) TCR alpha: SVCLFTDFDSQTNVSQSKDSDVYITDKTVLDMRSMDFKSNSAVAWSNKSDFACANAFNNSIIPEDTFFPSPESSCDVKLVEKSFETDTNLNFQNLSVIGFRILLLKVAGFNLLMTLRLWSS TCR beta: AKPVTQIVSAEAWGRADCGFTSESYQQGVLSATILYEILLGKATLYAVLVSALVLMAMVKRKDSRG
